Values belong to the binder of their own block, whether it stands above or below them.
Columns and labels:
[1] = molecular target: T1, Human TROP2 Protein, His Tag (Acro Biosystems) (human, UniProt P09758 27-274); test: Octet BLI, IgG on anti-human Fc sensor; 3 = No binding
T1 construct: not shown: His tag
T1 sequence (looked up): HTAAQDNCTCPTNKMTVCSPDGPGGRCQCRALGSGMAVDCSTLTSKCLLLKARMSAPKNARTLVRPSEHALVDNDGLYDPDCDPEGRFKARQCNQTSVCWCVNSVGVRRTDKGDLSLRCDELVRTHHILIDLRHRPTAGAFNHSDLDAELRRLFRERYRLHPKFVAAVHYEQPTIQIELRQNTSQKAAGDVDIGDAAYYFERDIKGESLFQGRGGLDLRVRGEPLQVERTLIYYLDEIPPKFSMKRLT

[2] = molecular target: T2, Human TROP2 Protein, His Tag (Acro Biosystems) (human, UniProt P09758 27-274); test: BLI (Octet), IgG on anti-human Fc sensor, 50 nM TROP2-His; 1 = pH dependent
T2 construct: also called TACSTD2; not shown: His tag
T2 sequence (looked up): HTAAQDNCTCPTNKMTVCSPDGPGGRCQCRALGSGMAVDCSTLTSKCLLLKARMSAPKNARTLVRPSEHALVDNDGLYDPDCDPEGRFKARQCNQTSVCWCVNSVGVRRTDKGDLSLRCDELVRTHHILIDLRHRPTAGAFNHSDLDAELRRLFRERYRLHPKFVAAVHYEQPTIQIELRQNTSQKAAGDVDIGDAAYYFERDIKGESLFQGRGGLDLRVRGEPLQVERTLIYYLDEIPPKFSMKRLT
Procedure: After allowing for four days of protein expression, cell culture supernatants were collected, quantified by SDS-PAGE analysis (DNS), and the pH dependence of the variant was evaluated using biolayer interferometry (BLI) on an Octet RED 96e instrument. Briefly, cell culture supernatants were diluted based on qualitative expression level of the variant determined by visual examination of SDS-PAGE gels, 5 μL of cell culture supernatant was diluted into 195 μL of 1×PBST, pH 7.4 for high expressors, 25 μL of cell culture supernatant was diluted into 175 μL of 1×PBST, pH 7.4 for medium expressors and 100 μL of cell culture supernatant was diluted into 100 μL of 1×PBST, pH 7.4 for low expressors for loading onto the sensor tips. The resulting diluted supernatants were then captured on an anti-human Fc sensor (Forte Bio). A baseline was established using 1×PBST (50 mM Potassium Phosphate Buffer+150 mM NaCl+0.05% Tween 20) pH 7.4, and the sensor was associated with 50 nM of TROP2 (Human TROP2 Protein, His Tag, Acro Biosystems) in 1×PBST pH 7.4 for 120 sec to generate an association curve. In the dissociation phase, the antibody-antigen complex on the sensor was exposed to 1×PBST pH 7.4 or pH 5.4, for 300 sec. […]

[3] = molecular target: T3, Human TROP2 Protein, His Tag (Acro Biosystems) (human, UniProt P09758 27-274); test: Octet BLI, IgG on anti-human Fc sensor; 3 = No binding
T3 construct: Bought antigen used at 50 nM in the Octet screen; also called TACSTD2; not shown: His tag
T3 sequence (looked up): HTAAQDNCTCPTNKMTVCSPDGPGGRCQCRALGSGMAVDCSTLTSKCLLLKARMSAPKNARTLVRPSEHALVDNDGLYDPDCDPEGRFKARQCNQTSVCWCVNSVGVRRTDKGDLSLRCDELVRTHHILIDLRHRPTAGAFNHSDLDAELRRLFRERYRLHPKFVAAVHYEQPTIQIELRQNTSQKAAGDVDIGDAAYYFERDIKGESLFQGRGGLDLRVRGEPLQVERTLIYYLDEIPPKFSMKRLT

binding result [1]: no binding (tested: 50 nM TROP2)
B1: MYT12395 (antibody, V domains shown)
VH: QVQLVQSGAEVKKPGASVKVSCKASGYTFTTAGMQWVRQAPGQGLEWMGWINTHSGVPKYAEDFKGRVTISADTSTSTAYLQLSSLKSEDTAVYYCARSGFGSSYWYFDVWGQGTLVTVSS
VL: DIQMTQSPSSLSASVGDRVTITCKASQDVSTAVAWYQQKPGKAPKLLIYSAHYRYTGVPSRFSGSGSGTDFTLTISSLQPEDFAVYYCHQHYITPLTFGQGTKLEIK
notes: datopotamab VL 52, 89 substituted

binding result [2]: binds
B2: MYT13385 (antibody, V domains shown)
VH: QVQLQQSGSELKKPGASVKVSCKASGYTFTNYGMNWVKQAPGQGLKWMGWINTYTGEPTYTHDFKGRFAFSLDTSVSTAYLQISSLKADDTAVYFCARGGFGSSYWYFDVWGQGSLVTVSS
VL: DIQLTQSPSSLSASVGDRVSITCKASQDVHIAVAWYQQKPGKAPKLLIYSAHYRYTGVPDRFSGSGSGTDFTLTISSLQPEDFAVYYCQQHYITPLTFGAGTKVEIK
notes: Sacituzumab HC-LC pairing variant

binding result [3]: no binding (tested: 50 nM)
B3: MYT11717 (antibody, V domains shown)
VH: QVQLQESGPGLVKPSETLSLTCTVSGGSISSYGVHWIRQPPGKGLEWIGVIHTSGVTDYNSALMGRVTISVDTSKNQFSLKLSSVTAADTAVYYCARDGDYDRYTMDYWGQGTLVTVSS
VL: DIVMTQSPDSLAVSLGERATINCRASKSVSTSGYSYMHWYQQKPGQPPKLLIYLASNLESGVPDRFSGSGSGTDFTLTISSLQAEDVAVYYCQHSRELPYTFGQGTKLEIK
notes: hu7E6SVG variant, His at HCV position 52 (H2 03); screened as IgG in Expi293 supernatant

— patent publication US20260274985A1 (MYTHIC THERAPEUTICS, published 2026)
